Experimental findings from publication PMC8421406, “C9orf72-derived arginine-rich poly-dipeptides impede phase modifiers” (Nature Communications, 2021) are described below.

Details in all cases: both partners purified
Test [1] concerns the target T1, mCh:FUS-LC (mCherry fusion LC-domain of FUS, residue 2–214), as hydrogel (UniProt P35637 2-214).
T1 construct: fused in sarcoma (FUS), LC-domain, residue 2–214; Polymerised in the hydrogel; plasmid from the Steven L. McKnight Laboratory; source: E. coli BL21(DE3), purified (Ni-NTA Agarose), prepared as hydrogel droplets; not shown: mCherry, N-terminal, kept
T1 sequence (looked up): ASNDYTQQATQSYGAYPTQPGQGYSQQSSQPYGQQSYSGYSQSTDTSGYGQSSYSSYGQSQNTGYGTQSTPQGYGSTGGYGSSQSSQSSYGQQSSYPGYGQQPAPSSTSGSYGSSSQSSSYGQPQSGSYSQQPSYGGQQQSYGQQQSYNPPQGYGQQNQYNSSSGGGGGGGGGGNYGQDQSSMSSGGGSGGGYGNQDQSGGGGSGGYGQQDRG
As to the kind of experiment: hydrogel binding assay; 1 µM purified GFP-fused protein pipetted onto hydrogel droplets of the mCherry-fused LC-domain, overnight, confocal microscopy; ± Kapβ2 (0.1, 0.3, 1.0 µM) ± PR20; 20 mM Tris-HCl pH 7.5, 150 mM NaCl, 20 mM β-mercaptoethanol, 0.1 mM PMSF, 0.5 mM EDTA.

Test [2] concerns the target T2, Kapβ2 (ΔLoop, residues 321–371 were replaced with GGSGGSGS linker) (UniProt Q92973-2 1-320; Q92973-2 372-890).
T2 construct: karyopherin-β2 (Kapβ2), the part before the loop, up to residue 320; linker that replaces residues 321–371; karyopherin-β2 (Kapβ2), the part after the loop, from residue 372; source: E. coli BL21(DE3), purified; not shown: GST, N-terminal, cleaved
T2 chain: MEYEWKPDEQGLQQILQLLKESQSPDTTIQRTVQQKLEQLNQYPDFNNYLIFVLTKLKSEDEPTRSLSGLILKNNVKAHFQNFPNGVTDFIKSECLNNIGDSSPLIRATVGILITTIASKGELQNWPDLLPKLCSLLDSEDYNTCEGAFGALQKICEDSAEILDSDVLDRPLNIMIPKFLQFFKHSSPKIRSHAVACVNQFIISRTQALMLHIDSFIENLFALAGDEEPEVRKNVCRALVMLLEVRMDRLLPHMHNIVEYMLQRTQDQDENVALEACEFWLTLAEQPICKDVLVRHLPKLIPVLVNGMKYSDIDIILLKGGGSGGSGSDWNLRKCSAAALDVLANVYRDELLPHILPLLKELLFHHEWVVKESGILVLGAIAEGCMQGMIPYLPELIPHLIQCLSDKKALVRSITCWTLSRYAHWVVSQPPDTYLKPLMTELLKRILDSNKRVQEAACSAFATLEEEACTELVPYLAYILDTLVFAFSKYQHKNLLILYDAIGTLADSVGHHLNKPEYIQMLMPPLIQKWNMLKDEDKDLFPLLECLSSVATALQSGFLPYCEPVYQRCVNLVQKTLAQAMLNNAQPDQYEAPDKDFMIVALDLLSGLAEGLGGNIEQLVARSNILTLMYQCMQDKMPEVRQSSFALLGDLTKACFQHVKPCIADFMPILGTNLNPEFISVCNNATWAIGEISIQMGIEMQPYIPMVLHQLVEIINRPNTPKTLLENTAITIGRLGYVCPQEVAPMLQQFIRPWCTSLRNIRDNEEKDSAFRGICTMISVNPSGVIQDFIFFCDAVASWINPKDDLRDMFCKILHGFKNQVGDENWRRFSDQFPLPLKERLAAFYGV
As to the kind of experiment: ITC; 200 μM MBP:PR18 titrated into 20 μM Kapβ2 (ΔLoop) in the cell; 25 °C; 20 mM HEPES pH 7.4, 150 mM NaCl, 10% glycerol, 2 mM β-mercaptoethanol; 19 injections of 2 μL. On the technique in general: In ITC the heat of successive injections is recorded.

Another test has as its target T3, karyopherin-β2 (Kapβ2) (UniProt Q92973 1-898, for NMR: [U-2H; Ile-δ1-13CH3; Leu, Val-13CH3/12CH3]-labeled).
T3 construct: karyopherin-β2 (Kapβ2), nuclear import receptor; Expressed as GST fusion from pGEX6P-1; also called isotopically labeled Kapβ2; source: E. coli BL21(DE3), purified (GSH Sepharose, HRV3C cleavage, anion exchange, gel filtration); not shown: GST, N-terminal, cleaved
T3 sequence (looked up): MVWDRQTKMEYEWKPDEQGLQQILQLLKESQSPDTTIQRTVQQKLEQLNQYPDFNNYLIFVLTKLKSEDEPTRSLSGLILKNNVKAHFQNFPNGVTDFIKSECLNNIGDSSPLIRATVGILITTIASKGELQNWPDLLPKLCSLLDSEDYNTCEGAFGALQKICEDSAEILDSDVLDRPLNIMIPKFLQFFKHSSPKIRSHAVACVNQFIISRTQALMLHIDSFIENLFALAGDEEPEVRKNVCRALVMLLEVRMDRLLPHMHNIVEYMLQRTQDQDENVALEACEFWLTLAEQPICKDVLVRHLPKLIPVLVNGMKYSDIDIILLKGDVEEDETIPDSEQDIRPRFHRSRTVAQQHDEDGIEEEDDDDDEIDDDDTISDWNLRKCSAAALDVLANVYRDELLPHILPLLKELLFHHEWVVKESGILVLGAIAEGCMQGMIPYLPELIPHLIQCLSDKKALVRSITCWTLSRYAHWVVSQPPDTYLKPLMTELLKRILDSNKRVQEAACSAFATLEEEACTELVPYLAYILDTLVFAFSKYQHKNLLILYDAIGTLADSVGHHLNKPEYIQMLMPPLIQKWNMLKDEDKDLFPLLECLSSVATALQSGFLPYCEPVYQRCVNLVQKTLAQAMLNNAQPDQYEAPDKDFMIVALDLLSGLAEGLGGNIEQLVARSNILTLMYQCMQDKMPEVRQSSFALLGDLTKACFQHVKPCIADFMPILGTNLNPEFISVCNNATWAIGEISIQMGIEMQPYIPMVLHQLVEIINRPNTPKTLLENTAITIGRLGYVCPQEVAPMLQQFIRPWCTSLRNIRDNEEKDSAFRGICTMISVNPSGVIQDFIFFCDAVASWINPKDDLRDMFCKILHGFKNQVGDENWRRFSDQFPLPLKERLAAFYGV
As to the kind of experiment: SEC-MALS; Superdex200 10/300 GL; 28 µM Kapβ2 injected in the absence and presence of 55 µM MBP:PR18; 20 mM HEPES pH 7.4, 150 mM NaCl, 2 mM MgCl2, 10% glycerol, 2 mM β-mercaptoethanol. Background: Size exclusion chromatography separates by hydrodynamic size, large species first.

B1: GFP:FUS-LC:NLS (GFP:FUS-LC fusion FUS-NLS, 501–526) (domain or fragment, UniProt P35637 2-214, looked up)
chain: ASNDYTQQATQSYGAYPTQPGQGYSQQSSQPYGQQSYSGYSQSTDTSGYGQSSYSSYGQSQNTGYGTQSTPQGYGSTGGYGSSQSSQSSYGQQSSYPGYGQQPAPSSTSGSYGSSSQSSSYGQPQSGSYSQQPSYGGQQQSYGQQQSYNPPQGYGQQNQYNSSSGGGGGGGGGGNYGQDQSSMSSGGGSGGGYGNQDQSGGGGSGGYGQQDRGGDRGGFGPGKMDSRGEHRQDRRERPY
notes: fused in sarcoma (FUS), LC-domain, residue 2–214; fused in sarcoma (FUS), NLS, residue 501–526; Built with the In-Fusion HD Cloning Kit; also called FUS-LC fusion NLS; source: E. coli BL21(DE3), purified (Ni-NTA Agarose); not shown: GFP, N-terminal, kept
For B1, the binding result in test [1] is “binds”.

B2: MBP:PR18 (18 repeats of Pro-Arg) (peptide)
chain: PRPRPRPRPRPRPRPRPRPRPRPRPRPRPRPRPRPR
notes: proline:arginine poly-dipeptide from the C9orf72 repeat expansion; source: E. coli BL21(DE3), purified (amylose resin, cation exchange, gel filtration); not shown: MBP, N-terminal, kept
The molecule B2 gave a Kd in test [2] of 81.3 nM. In the test with karyopherin-β2 (Kapβ2), the “stoichiometry N” value was 1.

B3: GFP:FUS-LC (green fluorescent protein fusion LC-domain of FUS, residue 2–214) (domain or fragment, UniProt P35637 2-214, looked up)
chain: ASNDYTQQATQSYGAYPTQPGQGYSQQSSQPYGQQSYSGYSQSTDTSGYGQSSYSSYGQSQNTGYGTQSTPQGYGSTGGYGSSQSSQSSYGQQSSYPGYGQQPAPSSTSGSYGSSSQSSSYGQPQSGSYSQQPSYGGQQQSYGQQQSYNPPQGYGQQNQYNSSSGGGGGGGGGGNYGQDQSSMSSGGGSGGGYGNQDQSGGGGSGGYGQQDRG
notes: fused in sarcoma (FUS), LC-domain, residue 2–214; Plasmid from the Steven L. McKnight Laboratory; source: E. coli BL21(DE3), purified (Ni-NTA Agarose); not shown: GFP, N-terminal, kept
Consider B3, for which, in test [1], the binding result was “binds”.

The term Kd denotes the concentration at which binding is half-saturated. Higher therefore signals lower affinity. As a reminder, the stoichiometry N is the number of molecules, sites or subunits per partner or assembly.
